These results are taken from US20210292393A1 (published 2021).

B1: antibody 308 (antibody, V domains shown)
VH: QLQLQESGPGLVKPSETLSLTCSVSGGSISSSSYHWGWIRQPPGKGLEWIGSIYYSGSTYYNPSLKSRVTISVDTSKNQFSLKLRSVTAADTAVYYCAGLRVVITFGGVIPKGGAFDIWGQGTMVTVSS
VL: QSALTQPASVSGSPGQSITISCTGTSSDVGGYNYVSWYQQHPGKAPKLMIYDVSNRPSGVSNRFSGSKSGNTASLTISGLQAEDEADYYCSSYTSSSTVVFGGGTKLTVL
B2: antibody 297 (antibody, V domains shown)
VH: QVQLVESGGGVVQPGRSLRLSCAASGFTFSSYAMHWVRQAPGKGLEWVAVISYDGSNKYYADSVKGRFTISRDNSKNTLYLQMNSLRAEDTAVYYCARSFRGGYYYGMDVWGQGTTVTVSS
VL: DIQLTQSPSFLSASVGDRVTITCRASQGISSYLAWYQQKPGKAPKLLIYAASTLQSGVPSRFSGSGSGTEFTLTISSLQPEDFATYYCQQLNSYPLFTFGPGTKVDIK
B3: antibody 261 (antibody, V domains shown)
VH: QVQLVESGGGVVQPGRSLRLSCAASGFTFSSYAMHWVRQAPGKGLEWVAVISYDGSNKYYADSVKGRFTISRDNSKNTLYLQMNSLRAEDTAVYYCARDEAYYDILTGYINAPKNYYYYGMDVWGQGTTVTVSS
VL: DIQMTQSPSSLSASVGDRVTITCRASQGIRNDLGWYQQKPGKAPKRLIYAASSLQSGVPSRFSGSGSGTEFTLTISSLQPEDFATYYCLQHNSYPFTFGPGTKVDIK
B4: antibody 356 (antibody, V domains shown)
VH: QVQLVQSGAEVKKPGASVKVSCKASGYTFTSYGISWVRQAPGQGLEWMGWISAYHGNTNYAQKLQGRVTMTTDTSTSTAYMELRSLRSDDTAVYYCARVGLWWLGHADAFDIWGQGTMVTVSS
VL: B3 VL with F96L, P100G, D105E
B5: antibody 353 (antibody, V domains shown)
VH: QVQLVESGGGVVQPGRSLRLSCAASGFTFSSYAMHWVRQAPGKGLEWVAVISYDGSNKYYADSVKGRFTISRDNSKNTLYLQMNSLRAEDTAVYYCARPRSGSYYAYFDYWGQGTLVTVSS
VL: DIQMTQSPSSLSASVGDRVTITCRASQGISNYLAWFQQKPGKAPKSLIYAASSLQSGVPSKFSGSGSGTDFTLTISSLQPEDFATYYCQQYNSYPPTFGGGTKVEIK
B6: antibody 307 (antibody, V domains shown)
VH: QVQLVESGGGVVQPGRSLRLSCAASGFTFSSYGMHWVRQAPGKGLEWVAVIWYDGSNKYYADSVKGRFTISRDNSKNTLYLQMNSLRAEDTAVYYCAKGYTWDYYYYGMDVWGQGTTVTVSS
VL: not shown
B7: antibody 310 (antibody, V domains shown)
VH: EVQLVESGGGLVQPGGSLRLSCAASGFTFSSYWMSWVRQAPGKGLEWVANIKQDGSEKYYVDSVKGRFTISRDNAKNSLYLQMNSLRAEDTAVYYCARVGSSSWYFDYWGQGTLVTVSS
VL: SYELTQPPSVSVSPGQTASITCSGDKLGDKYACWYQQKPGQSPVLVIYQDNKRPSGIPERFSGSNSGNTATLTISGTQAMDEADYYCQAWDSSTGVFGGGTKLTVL
B8: antibody 336 (antibody, V domains shown)
VH: QVQLVESGGGVVQPGRSLRLSCAASGFTFSSYAMHWVRQAPGKGLEWVAVISYDGSNKYYADSVKGRFTISRDNSKNTLYLQMNSLRAEDTAVYYCARAQTDYYDSSGWFDYWGQGTLVTVSS
VL: SYELTQPPSVSVSPGQTARITCSGDALPKQYAYWYQQKPGQAPVLVIYKDSERPSGIPERFSGSSSGTTVTLTISGVQAEDEADYYCQSADSSGTPHWVFGGGTKLTVL
B9: antibody 354 (antibody, V domains shown)
VH: QVQLVESGGGVVQPGRSLRLSCAASGFTFSSYAMHWVRQAPGKGLEWVAVISYDGSNKYYADSVKGRFTISRDNSKNTLYLQMNSLRAEDTAVYYCARDRPYYYGSGIPGYYGMDVWGQGTTVTVSS
VL: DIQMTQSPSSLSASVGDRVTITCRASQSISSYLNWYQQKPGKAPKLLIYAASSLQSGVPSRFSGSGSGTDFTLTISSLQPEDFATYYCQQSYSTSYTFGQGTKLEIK
B10: antibody 302 (antibody, V domains shown)
VH: QVQLVQSGAEVRKPGASVKVSCKVSGYTLSELSMHWVRQAPGKGLEWMGGFDPEDGERMYAQKFQGRVTMTEDTSTDTAYMELSSLRSEDTAIYYCTTDLSYLWSGKLEPDYWYFALWGRGTLVTVSS
VL: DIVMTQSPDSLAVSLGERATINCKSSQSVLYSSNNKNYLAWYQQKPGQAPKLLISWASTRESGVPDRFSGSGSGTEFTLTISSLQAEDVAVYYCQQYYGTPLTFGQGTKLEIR
B11: antibody 277 (antibody, V domains shown)
VH: QVQLVESGGGVVQPGRSLRLSCAASGFTFSSYAMHWVRQAPGKGLEWVAVISYDGSNTYYADSVKGRFTISRDNSKNTLYLQMNSLRAEDTAVYYCARPYSGSYFNWFDPWGQGTLVTVSS
VL: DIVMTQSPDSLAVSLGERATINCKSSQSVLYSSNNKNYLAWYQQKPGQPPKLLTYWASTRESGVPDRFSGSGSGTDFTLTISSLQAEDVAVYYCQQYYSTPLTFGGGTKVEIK
B12: antibody 291 (antibody, V domains shown)
VH: B2 VH with S99A, F100S, R101G, G103S, Y105F, Y106G
VL: QSALTQPASVSGSPGQSITISCTGTSSDVGGYNYVSWYQQHPGKAPKLMIYEVSNRPSGVSNRFSGSKSGNTASLTISGLQAEDEADYYCSSYTSSSTLYVFGTGTKVTVL
B13: antibody 313 (antibody, V domains shown)
VH: B11 VH with T58K, P99G, Y100L, S101G, F105Y, N106S, W107L, P110Y
VL: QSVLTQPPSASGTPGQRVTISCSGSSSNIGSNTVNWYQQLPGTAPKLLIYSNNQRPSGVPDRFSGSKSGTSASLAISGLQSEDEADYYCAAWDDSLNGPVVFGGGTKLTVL
B14: antibody 278 (antibody, V domains shown)
VH: QVQLVQSGAEVKKPGASVKVSCKASGYTFTSYYMHWVRQAPGQGLEWMGIINPSGGSTSYAQKFQGRVTMTRDTSTSTVYMELSSLRSEDTAVYYCARDHSNADPYYDFWSGYYTRTYYYGMDVWGQGTTVTVSS
VL: not shown
B15: antibody 330 (antibody, V domains shown)
VH: QVQLVESGGGVVQPGRSLRLSCAASGFTFSSYAMHWVRQAPGKGLEWVAVISYDGSNKYYADSVKGRFTISRDNSKNTLYLQMNSLRAEDTAVYYCARDFQYYDFWSGYLTVSSPTSYYGMDVWGQGTTVTVSS
VL: NFMLTQPHSVSESPGKTVTISCTGSSGSIASNYVQWYQQRPGSAPTTVIYEDNQRPSGVPDRFSGSIDSSSNSASLTISGLKTEDEADYYCQSYDSSNVVFGGGTKLTVL
B16: antibody 305 (antibody, V domains shown)
VH: QVQLVESGGGVVQPGRSLRLSCAASGFTFSSYAMHWVRQAPGKGLEWVAVISYDGSNKYYADSVKGRFTISRDNSKNTLYLQMNSLRAEDTAVYYCAREQTSYDYVWGTLGAYYYYGMDVWGQGTTVTVSS
VL: SSELTQDPAVSVALGQTVRITCQGDSLRSYYASWYQQKPGQAPVLVIYGKNNRPSGIPDRFSGSSSGNTASLTITGAQAEDEADYYCNSRDSSGNHLVFGGGTKLTVL
B17: antibody 338 (antibody, V domains shown)
VH: QVQLQESGPGLVKPSETLSLTCAVSGYSISSDYYWGWIRQPPGKGLEWIGSIYHSGSTYYNPSLKSRVTISIDTSKNQFSLKLSSVTAADTAVYYCARDPGNYDILTGIFDYWGQGTLVTVSS
VL: QSALTQPASVSGSPGQSITISCTGTSSDVGVYNYVSWYQQHPGKAPKLMIYDVTNRPSGVSNRFSGSKSGNTASLTISGLQAEDEADYYCSSYTSSSTLAVYVFGTGTKVTVL
B18: antibody 318 (antibody, V domains shown)
VH: QVQLVESGGGVVPPGRSLSLPCAASGFSFSAYAMHWLRQAPGKGLEWVAVISYDGTVKYVADSVRGRFTISRDNSNNTLYLQMTSLRSDDTAVYYCARDLGALAAAPTVYFVHWGQGTLVTVSS
VL: SYVLTQPPSVSVAPGKTATITCAGEDIGRKSVHWYQQKPGQAPVLVIFYYSDRPSGIPDRFSGSVSGNTATLTIGRVEAGDEADYFCQVWDRTTNHVIFGGGTKVTVL
B19: antibody 370 (antibody, V domains shown)
VH: B18 VH with S28T
VL: B18 VL
B20: antibody 258 (antibody, V domains shown)
VH: QVQLQESGPGLVKPSETLSLTCTVSGGSISSYYWSWIRQPAGKGLEWIGRIYTSGSTNYNPSLKSRVTMSVDTSKNQFSLKLSSVTAADTAVYYCAAGYGSIDYWGQGTLVTVSS
VL: not shown
B21: antibody 311 (antibody, V domains shown)
VH: QVQLQESGPGLVKPSETLSLTCTVSGYSISSGYYWGWIRQPPGKGLEWIGSIYHSGSTYYNPSLKSRVTISVDTSKNQFSLKLSSVTAADTAVYYCAREETLGSSWYESYIDYWGQGTLVTVSS
VL: SYVLTQPPSVSVAPGKTARITCGGNNIGSKSVHWYQQKPGQAPVLVIYYDSDRPSGIPERFSGSNSGNTATLTISRVEAGDEADYYCQVWDSSSDHPRVFGGGTKLTVL
B22: antibody 298 (antibody, V domains shown)
VH: EVQLVESGGGLVQPGGSLRLSCAASGFTVSSNYMSWVRQAPGKGLEWVSVIYSGGSTYYADSVKGRFTISRDNSKNTLYLQMNSLRAEDTAVYYCAREEGEWEKDYYGMDVWGQGTTVTVSS
VL: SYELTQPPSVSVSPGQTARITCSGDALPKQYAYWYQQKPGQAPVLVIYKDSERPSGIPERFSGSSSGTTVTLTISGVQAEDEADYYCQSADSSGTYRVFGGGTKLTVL

Positions count from the first letter of the chain named.

As usually defined, the Kd is the equilibrium constant for the complex coming apart. Low readings indicate higher affinity, high ones lower affinity. Broadly, the koff is the first-order rate constant of dissociation. Higher therefore signals a short-lived complex. Usually kon stands for a measure of how fast the partners come together.

The test deals with SARS-CoV-2 spike (S) protein (SARS-CoV-2, UniProt P0DTC2 14-1208).
For B1, binding was put at a Kd of 0.495 nM, the koff was found to be 6.89e-05 s⁻¹ and the kon is 139000 M⁻¹ s⁻¹.
The like results for B2 were, in that order, 1.6 nM, 0.000127 s⁻¹ and 79800 M⁻¹ s⁻¹.
For B3 the same measures were 5.37 nM, 0.000695 s⁻¹ and 129000 M⁻¹ s⁻¹.
The like results for B4 were, in that order, 3.65 nM, 9.66e-05 s⁻¹ and 26500 M⁻¹ s⁻¹.
In the case of B5, the dissociation constant Kd is 0.0601 nM, the koff amounted to 4.09e-05 s⁻¹ and the kon came to 680000 M⁻¹ s⁻¹.
As to B6, binding was characterised by a dissociation constant (Kd) of 17 nM and the koff stood at 0.00171 s⁻¹.
B7 yielded a Kd of 0.532 nM, a koff of 6.43e-05 s⁻¹ and a kon of 121000 M⁻¹ s⁻¹.
B8 gave a Kd of 1.11 nM, a koff of 0.00021 s⁻¹ and a kon of 190000 M⁻¹ s⁻¹.
Turning to B9, the Kd amounted to 43.6 nM, the koff was found to be 0.00179 s⁻¹ and the kon was 41100 M⁻¹ s⁻¹.
For B10 the same measures were 0.726 nM, 7.63e-05 s⁻¹ and 105000 M⁻¹ s⁻¹.
The like results for B11 were, in that order, 0.204 nM, 6.24e-05 s⁻¹ and 305000 M⁻¹ s⁻¹.
Turning to B12, the Kd is 0.117 nM, the koff is 5.43e-05 s⁻¹ and the kon was 464000 M⁻¹ s⁻¹.
For B13, binding was put at a Kd of 0.0975 nM, the koff amounted to 4.89e-05 s⁻¹ and the kon was 502000 M⁻¹ s⁻¹.
B14 came in with a Kd of 4.78 nM, a koff of 0.000862 s⁻¹ and a kon of 201000 M⁻¹ s⁻¹.
Turning to B15, the dissociation constant (Kd) is 9.54 nM, the koff stood at 0.00073 s⁻¹ and the kon worked out at 76500 M⁻¹ s⁻¹.
For B16 the same measures were 13.8 nM, 0.001 s⁻¹ and 72600 M⁻¹ s⁻¹.
B17: binding was put at a Kd of 0.882 nM, the koff was determined as 4.43e-05 s⁻¹ and the kon worked out at 50200 M⁻¹ s⁻¹.
As to B18, the Kd came to 11.1 nM, the off-rate (koff) was found to be 0.0017 s⁻¹ and the kon turned out to be 152000 M⁻¹ s⁻¹.
For B19 the same measures were 5.55 nM, 0.000986 s⁻¹ and 178000 M⁻¹ s⁻¹.
The like results for B20 were, in that order, 0.996 nM, 8.36e-05 s⁻¹ and 84000 M⁻¹ s⁻¹.
The molecule B21 gave a dissociation constant (Kd) of 19.1 nM, a koff of 0.000407 s⁻¹ and an association rate constant (kon) of 21300 M⁻¹ s⁻¹.
For B22 the same measures were 0.0225 nM, 1.34e-05 s⁻¹ and 597000 M⁻¹ s⁻¹.
